{"source": "patent US7670806B2", "about": "“ADP-ribosyl acceptor hydrolase 3 (ARH3) polypeptides and methods of use” (The United States of America as represented by the …, priority 2005, dated 2010)", "molecules": {"B1": {"name": "ARH3 (D77N/D78N): human ARH3 mutant with dual amino acid replacement D77N/D78N (protein)", "chain": "MAAAAMAAAAGGGAGAARSLSRFRGCLAGALLGDCVGSFYEAHDTVDLTSVLRHVQSLEPDPGTPGSERTEALYYTNNTAMARALVQSLLAKEAFDEVDMAHRFAQEYKKDPDRGYGAGVVTVFKKLLNPKCRDVFEPARAQFNGKGSYGNGGAMRVAGISLAYSSVQDVQKFARLSAQLTHASSLGYNGAILQALAVHLALQGESSSEHFLKQLLGHMEDLEGDAQSVLDARELGMEERPYSSRLKKIGELLDQASVTREEVVSELGNGIAAFESVPTAIYCFLRCMEPDPEIPSAFNSLQRTLIYSISLGGDTDTIATMAGAIAGAYYGMDQVPESWQQSCEGYEETDILAQSLHRVFQKS"}}, "test": "Hydrolysis of O-acetyl-[14C]ADP-ribose by ARH proteins / PARG (RP-HPLC)", "type": "biochemical", "conditions": "1.5 pmol wild type or mutant human ARH3 or 20 mU PARG, 2 h at 30° C.; mouse ARH1, 2, 3", "protocol": "FIG. 13A is a graph illustrating the results from incubation of 1.5 pmol of mouse ARH3 with or without 5 mM DTT and/or 10 mM MgCl2 as described in FIG. 11B with incubation for 1 h at 30° C. FIG. 13B is a graph illustrating the results from incubation of 1.5 pmol of wild type or mutant human (D77-78) ARH3 or 20 mU of PARG for 2 h at 30° C. *D77,78, assays incubated with 15 pmol of mutant human ARH3 (D77, D78).\nFIG. 14A is a graph of the results from incubation with the indicated amount of mouse ARH1, 2, or 3 for 2 h at 30° C. FIG. 14B is a graph of the results from incubation with 230 pmol of mouse ARH1 at 30° C. for the indicated time.\nMouse ARH3 (2 pmol) and 2.5 μM O-acetyl-[^14C]ADP-ribose (5,000 cpm) in 200 μl of buffer containing 50 mM potassium phosphate (pH 7.0), 10 mM MgCl2 and 5 mM DTT were incubated for 2 h at 30° C., before separation of substrate and products using RP-HPLC as described below.\nHydrolysis of O-acetyl-[^14C]ADP-ribose catalyzed by ARH3. Assays containing the indicated concentration of O-acetyl-[^14C]-ADP-ribose (0.1 to 2 nmol, 1,000 to 20,000 cpm) and 1.5 pmol of ARH3 in 200 μl of buffer (50 mM KPO4 (pH 7.0), 10 mM MgCl2, 5 mM DTT) were incubated at 30° C. for 20 min. Substrate and products were separated using RP-HPLC. Amounts of product were corrected for ADP-ribose produced in the absence of ARH3 before calculation of hydrolysis rates.\nBecause O-acetyl-ADP-ribose was known to be hydrolyzed at alkaline pH Tanny and Moazed (2001), Proc Natl Acad Sci USA. 98(2):415-20, Epub Dec. 26, 2000), it was generated at pH 7.0 in the presence of [^14C-adenine] β-NAD, Sir2, and acetylated histone H3 peptide (FIG. 11A), and the products of Sir2 and ARH3 were analyzed using reverse-phase HPLC at the same pH (FIGS. 11A,B). The products of the ARH3-catalyzed reaction were also analyzed by high resolution-polyacrylamide gel electrophoresis (FIG. 11C). O-acetyl-[^14C]ADP-ribose hydrolase activity was time and ARH3 dependent (FIG. 12) and essentially completely dependent on Mg^2+ (FIG. 13A).\nO-acetyl-ADP-ribose hydrolysis by ARH1 was time and ARH1 dependent (FIG. 14b).", "data": [{"molecule": "B1", "values": [{"measurement": "O-acetyl-ADP-ribose hydrolysis (in words)", "value": "apparently inactive"}]}]}
